One experiment has as its system Tie2 and Akt. The experiment can be described thus: In vivo phosphorylation of Tie2 and Akt in mouse lung tissue. Conditions: C57BL6 mouse; 5 mg/kg antibody alone or with 20 ug Ang2, tail vein; 1 hour. The procedure: In addition, the phosphorylation of Tie2 receptor and a protein (Akt) which participates in downstream signaling of Tie2 by treating anti-Ang2 antibody was measured in animal model (in vivo). More particularly, 5 mg/kg of antibody was injected alone or together with 20 ug of Ang2 into tail vein of 7-8 week old C57BL6 mouse, and 1 hour after, lung tissue was removed. The obtained lung tissue was subjected to homogenization lysis using lysis buffer (Roche) and FastPrep kit (MP biomedicals). Activities of Tie2 and Akt in the obtained tissue lysate were measured by the above-described method.

Experiment [1] concerns Vascular endothelial cells (HUVEC). The experiment can be described thus: BrdU proliferation assay, vascular endothelial cells. The experiment is classed as cell-based, human. Particulars: 2 ug/ml Ang2 with 10 ug/ml antibody; 3 days. The procedure:
The measurement assay of the proliferation of vascular and lymphatic endothelial cells was conducted using a BrdU assay kit (Roche) Cell. Vascular endothelial cells of P3˜P8 (HUVEC, ATCC) or lymphatic endothelial cells (Lonza) were placed in a collagen-coated 96-well plate (BD Bioscience) at 3000˜5000 cells/well and cultured in EGM-2 media (Lonza) for 16˜24 hours. A mixture of 2 ug/ml of Ang2 (R&D systems) and 10 ug/ml of antibody 10D6 in 2% EBM media was added to the 96-well plate washed with PBS, which was then cultured for 3 days.
For efficiency comparison, an anti-Ang2 antibody (MEDI: Medlmmune Co.) was used. For a BrdU assay, 10 ul of BrdU solution diluted at 1:1,000 was added to each well of the plate to label the cells. The cells were cultured for 1 hour and after the removal of the culture solution, 100 ul of Fixation/Denaturation solution (Roche) was added to each well and then, removed after 30-min wait. An anti-BrdU antibody (Roche) conjugated with peroxidase was diluted in a dilution buffer (Roche) at 1:100, added to each well to react for 1 hour and then, washed four times using a washing buffer (Roche). 100 ul of a TMB substrate was added thereto to react and then, absorption was measured at 450 nm using a Microplate reader (Perkin Elmer).

Experiment [2] deals with lymphatic endothelial cells. The experiment can be described thus: Cell migration assay (xCelligence RTCA). Conditions: 2 ug/ml Ang2 with antibody; slope (1/hr). The experiment is classed as cell-based. The procedure: Also, the measurement of the mobility of lymphatic endothelial cells was conducted using xCelligence RTCA (Realtime cell analyzer; GE Healthcare). The RTCA is a non-invasive cell monitoring system by measuring impedance in real time to identify the change of a cell. To perform a cell migration assay, a CIM-plate16 (GE Healthcare) with a lower chamber and an upper chamber was used wherein microelectrodes for measuring impedance are arranged in the upper chamber and if the cells seeded into the chamber migrate through fine holes, the migration degree of the cells can be identified through their adhesion to the microelectrodes, and it was referred to as migration index. The lymphatic endothelial cells (P5-7; Lonza) which grew up in EGM-2 media (Lonza) were cultured in 1% FBS-added EBM media for 6 hours. 2 ug/ml of Ang2 and antibody 10D6 in 2% FBS-added EBM media were added to each well of the lower chamber of the CIM-plate 16, which was assembled with the upper chamber coated with fibronectin (Sigma). For efficiency comparison, an anti-Ang2 antibody (MedImmune Co.) was used. 30 ul of serum-free EBM media was each added to the upper chamber and then, for equilibration between the plate and media, while being placed in an incubator for 1 hour, the CIM-plate was installed on a device station in the incubator and then, background values were measured. […]

A further experiment deals with E-selectin. The experiment can be described thus: LPS-induced mRNA expression of E-selectin in HUVEC (qPCR). The experiment is classed as cell-based, human. Particulars: 100 ng/ml LPS 5 hours, 0.2 ug/ml Ang1 or 0.1 ug/ml Ang2 + 0.5 ug/ml antibody. As for the experimental part: To see anti-inflammatory effects by antibody 10D6, HUVEC (ATCC) cells (4×10^5) were treated with Ang2 alone or Ang2 together with antibody 10D6, and a group in which Ang1 and Ang2 (R&D systems) and Regeneron Co. antibody (RG antibody) were co-treated was included as a control group. HUVEC cells were treated with 0.2 ug/ml of Ang1, 0.1 ug/ml of Ang2, or 0.1 ug/ml of Ang2 and 0.5 ug/ml of antibody, respectively and after 30-min. pre-incubation, they were treated with 100 ng/ml of LPS (Sigma) to induce inflammatory response and incubated for 5 hours.
The degree of the inflammatory response was identified by measuring the mRNA expression degree of an inflammatory adhesion substance (ICAM-1, E-selectin). The cells were washed using PBS, RNA was extracted using RNeasy Mini kit (Qiagen), and among them, 2 ug of RNA was synthesized into cDNA using Transcriptor First Strand cDNA synthesis kit (Roche). qPCR reaction was performed using RT2 SYBR™ Green Mastermix (Qiagen) and LightCycler™ 480 Real-Time PCR System (Roche). As an internal control for calibrating the amount of RNA in a sample, HPRT1 was used, and qPCR complied with the following procedures with regard to all the primers.
Step 1: 95° C., 10 min; Step 2 (45 cycles): Step 2-1: 95° C., 15 sec; Step 2-2: 60° C., 1 min; Step 3: 65° C., 15 sec; Step 4: 95° C., continuous (every 20° C.); Step 6: 40° C., 10 sec.

Experiment [3] has as its system LLC (Lewis Lung Carcinoma). The experiment can be described thus: LLC tumor growth model. Conditions: LLC in C57BL/6 mice; 10 mg/kg intraperitoneal three times a week; control Fc of IgG1. The experiment is classed as in vivo, mouse. The procedure:
To see the tumor growth inhibitory effects of Ang2 antibody, a […] Xenograft model using a LLC (Lewis Lung Carcinoma) was employed.
LLC cells (ATCC) were cultured using 10% FBS (Gibco)-supplemented DMEM (Gibco) media. 1×10^6 of LLC cells were re-suspended in 100 ul of PBS (Gibco) and then subcutaneously injected into 6˜8-week-old C57BL/6 mice (Jackson Laboratory) anesthetized with 1˜2% isoflurane.
When the size of tumors reached 50˜100 mm^3, anti-Ang2 antibody (10D6) was injected at the concentration of 10 mg/kg via an intraperitoneal injection three times a week and the size of the tumors was measured.
The size of tumor (V) was calculated using the following formula: Volume (V)=(width)2×length/2
For comparison, the same experiment was performed to a control group treated with Fc of IgG1 and a comparative group treated with antibody 4H10 (refer to Example 3).

Consider one molecule from patent US9505841B2, “Use of an anti-Ang2 antibody” (Samsung Electronics Co., Ltd., priority 2013, dated 2016).

B1: 10D6: mouse anti-Ang2 monoclonal antibody from hybridoma KCLRF-BP-00295; heavy chain variable region SEQ ID NO: 7, light chain variable region SEQ ID NO: 9 (antibody, V domains shown)
VH: DVQLQESGPGLVKPSQSLSLTCTVTGYSITSDYAWNWIRQFPGNKLEWMGYINYSGNTDYNPSLKSRSSITRDTSKNQFFLQLNSVTTGDTATYYCARGNFEGAMDYWGQGTSVTVSS
VL: SIVMTQTPKFLLVSAGDRVTITCKASQSVSNDVAWYQQKPGQSPKLLIYYASNRYPGVPDRFTGSGYGTDFTFTISTVQAEDLAVYFCQQDYSSPWTFGGGTKLEIK
modifications: Synthetic (Heavy chain variable region of an anti-Ang2 antibody); Synthetic (Light chain variable region of anti-Ang2 antibody)
As for B1, the “phosphorylation of Tie2 and Akt in lung tissue in vivo” value in the experiment on Tie2 and Akt was “considerable effect of phosphorylating Tie2 and a protein, Akt”. Also, the “growth of vascular endothelial cells (BrdU)” value in experiment [1] is given as “increased”. Moreover, the “migration of lymphatic endothelial cells” value in experiment [2] is on record as “increased”. Besides, the “expression of E-selectin induced by LPS” value with E-selectin is given as “remarkably suppressed”. Also, the “inhibition of growth of the tumor compared to the control group” value in experiment [3] is given as “about 40%”.
